Patent publication US20180291353A1, “MONOFUNCTIONAL ALDEHYDE AND ALCOHOL DEHYDROGENASES FOR PRODUCTION OF FUELS AND COMMODITY CHEMICALS” (The Regents of the University of California, priority 2015, published 2018)

What was measured:
[1] = tested on: butanol production pathway; experiment: Butanol and ethanol production in E. coli MC1.24 (quintuple KO) with bifunctional or monofunctional dehydrogenases (FIG. 5); type: cell-based; conditions: E. coli MC1.24, FIG. 5
From the text: FIG. 5 illustrates genetically engineered improvement of a butanol production pathway composed of monofunctional aldehyde and alcohol dehydrogenases. The fuel titer of either butanol or ethanol in E. coli cells expressing the biosynthetic pathway shown in FIG. 6A with various particular alcohol and/or aldehyde dehydrogenases is shown. Specifically, E. coli MC1.24 (quintuple KO) was transformed with pT533-phaA.HBD, pBBR2-aceE.F.lpd and 1: pCWO.trc-ter-adhE2, 2: pCDF3-aldh16, 3: pCWori-ter-aldh16.CaADH, or 4: pCWO.trc-ter-aldh16.CaADH as indicated.
. The cultures were grown at 37° C. in a rotary shaker (200 r.p.m.) and induced with IPTG (1.0 mM) at OD600=0.35-0.45. At this time, the growth temperature was reduced to 30° C., and the culture flasks were sealed with Parafilm M (Pechiney Plastic Packaging) to prevent product evaporation for aerobic cultures. Anaerobic cultures were sealed and the headspace was sparged with argon for 5 minutes immediately follow induction. Aerobic cultures were unsealed for 10 to 30 min every 24 h then resealed with Parafilm M, and additional glucose (1% (w/v)) was added 1 day post-induction. Samples were quantified after 3 d of cell culture.
Samples (2 ml) were removed from cell culture and cleared of biomass by centrifugation at 20,817 g for 2 min using an Eppendorf 5417R centrifuge. The supernatant or cleared medium sample was then mixed in a 9:1 ratio with an aqueous solution containing the isobutanol internal standard (10,000 mg l^−1). These samples were then analyzed on a Trace GC Ultra (Thermo Scientific) using an HP-5MS column (0.25 mm×30 m, 0.25 μM film thickness, J & W Scientific). The oven program was as follows: 75° C. for 3 min, ramp to 300° C. at 45° C. min^−1, 300° C. for 1 min. n-Butanol was quantified by flame ionization detection (FID) (flow: 350 ml min^−1 air, 35 ml min^−1 H2 and 30 ml min^−1 helium). Samples containing n-butanol levels below 500 mg 1^−1 were requantified after extraction of the cleared medium sample or standard (500 μl) with toluene (500 μl) containing the isobutanol internal standard (100 mg 1^−1) using a Digital Vortex Mixer (Fisher) for 5 min set at 2,000. The organic layer was then quantified using the same GC parameters with a DSQII single-quadrupole mass spectrometer (Thermo Scientific) using single-ion monitoring (m/z 41 and 56) concurrent with full scan mode (m/z 35-80). Samples were quantified relative to a standard curve of 2, 4, 8, 16, 31, 63, 125, 250, 500 mg 1^−1 n-butanol for MS detection or 125, 250, 500, 1,000, 2,000, 4,000, 8,000 mg 1^−1 n-butanol for FID detection. Standard curves were prepared freshly during each run and normalized for injection volume using the internal isobutanol standard (100 or 1,000 mg 1^−1 for MS and FID, respectively). […]

[2] = tested on: n-butanol biosynthetic pathway; experiment: Butanol and ethanol fuel titer in E. coli DH1 expressing the n-butanol pathway with AdhE2 variants or homologs (FIG. 2, FIG. 3); type: cell-based; conditions: E. coli DH1, compared with WT AdhE2
From the text: The fuel titer of butanol in E. coli cells expressing the biosynthetic pathway shown in FIG. 6A with various particular AdhE2 variants incorporating amino acid substitutions from the AdhE2 superfamily is shown. The x-axis labels indicate the particular AdhE2 variant being expressed in the E. coli, with wild-type AdhE2 also shown for comparison. In each figure, E. coli DH1 was transformed with pT5T33-phaA.HBD-crt and pCDF3-ter-AdhE2 variant as indicated. FIG. 2A illustrates the butanol production for AdhE2 variants #76930 to #76978. FIG. 2B illustrates the butanol production for AdhE2 variants #76979 to #77025, and also includes WT AdhE2 (GI 499193180). AdhE2 and variants thereof shown in FIG. 2A and FIG. 2B include SEQ ID NOs: 60-154. […]
. […] Samples were quantified after 3 d of cell culture.
Samples (2 ml) were removed from cell culture and cleared of biomass by centrifugation at 20,817 g for 2 min using an Eppendorf 5417R centrifuge. […] These samples were then analyzed on a Trace GC Ultra (Thermo Scientific) using an HP-5MS column (0.25 mm×30 m, 0.25 μM film thickness, J & W Scientific). The oven program was as follows: 75° C. for 3 min, ramp to 300° C. at 45° C. min^−1, 300° C. for 1 min. n-Butanol was quantified by flame ionization detection (FID) (flow: 350 ml min^−1 air, 35 ml min^−1 H2 and 30 ml min^−1 helium). […]

[3] = tested on: butanediol and hydroxybutanone production pathway; experiment: Screen of secondary alcohol dehydrogenases in the aldh7-adh2 pathway in E. coli (FIG. 15-17); type: cell-based; conditions: in words; pathway with aldh7-adh2 and acetoacetyl-CoA reductase
From the text: FIG. 16 illustrates the results of a screen of secondary alcohol dehydrogenases when expressed in the pathway described in FIG. 15. The production titers of 4-hydroxy-2-butanone (hydroxybutanone) and 1,3-butanediol (butanediol) when the illustrated secondary alcohol dehydrogenases are expressed in the pathway illustrated in FIG. 15 are shown. Data are mean±s.d. (n=3).
FIG. 17 illustrates how expression of specific proteins in the pathway described in FIG. 15 can control butanediol:hydroxybutanone ratios through pathway design. The production titers of 4-hydroxy-2-butanone (hydroxybutanone) and 1,3-butanediol (butanediol) when the illustrated proteins are expressed in the pathway illustrated in FIG. 15 are shown. Data are mean±s.d. (n=3).
Unless otherwise described, applicable materials and methods as described in this Example are analogous to those described in Example 1.
At least four SADHs enabled butanediol production of 2 g/L with hydroxybutanone production limited to 250 mg/L or less (FIG. 16). This pathway design appears preferable to enforcing specificity through an ADH that will not accept acetoacetaldehyde; acetoacetaldehyde need not be a dead end product and can still be channeled to butanediol production.

[4] = ALDH7 activity toward substrates; type: biochemical; conditions: in words
[5] = substrate: CC(=O)SCCNC(=O)CCNC(=O)[C@H](O)C(C)(C)COP(=O)(O)OP(=O)(O)OC[C@H]1O[C@@H](n2cnc3c(N)ncnc32)[C@H](O)[C@@H]1OP(=O)(O)O; experiment: purified protein, by the assay type; conditions: other: 100 μM NADH, 100 mM Tris, 1 mM DTT, pH 7.5, 30° C., mean±s.e. (n=3)
[6] = substrate: CCCC(=O)SCCNC(=O)CCNC(=O)[C@H](O)C(C)(C)COP(=O)(O)OP(=O)(O)OC[C@H]1O[C@@H](n2cnc3c(N)ncnc32)[C@H](O)[C@@H]1OP(=O)(O)O; experiment: purified protein, by the assay type; conditions: other: 100 μM NADH, 100 mM Tris, 1 mM DTT, pH 7.5, 30° C., mean±s.e. (n=3)

B1: ALDH16: monofunctional aldehyde dehydrogenase specific for C4 substrates (protein, listed as Clostridium beijerinckii)
chain: MNKDTLIPTTKDLKVKTNGENINLKNYKDNSSCFGVFENVENAISSAVHAQKILSLHYTKEQREKIITEIRKAALQNKEVLATMILEETHMGRYEDKILKHELVAKYTPGTEDLTTTAWSGDNGLTVVEMSPYGVIGAITPSTNPTETVICNSIGMIAAGNAVVFNGHPCAKKCVAFAVEMINKAIISCGGPENLVTTIKNPTMESLDAIIKHPSIKLLCGTGGPGMVKTLLNSGKKAIGAGAGNPPVIVDDTADIEKAGRSIIEGCSFDNNLPCIAEKEVFVFENVADDLISNMLKNNAVIINEDQVSKLIDLVLQKNNETQEYFINKKWVGKDAKLFLDEIDVESPSNVKCIICEVNANHPFVMTELMMPILPIVRVKDIDEAIKYAKIAEQNRKHSAYIYSKNIDNLNRFEREIDTTIFVKNAKSFAGVGYEAEGFTTFTIAGSTGEGITSARNFTRQRRCVLAG
With B1 the butanol production [1] was 1 g/L, the ethanol production [1] was 0.5 g/L and the “butanol:ethanol ratio” value [2] was “favorable”.

B2: SADH1: secondary alcohol dehydrogenase from Pichia kudriavzevii (protein, listed as Pichia kudriavzevii)
chain: MFMKGLTYLKPGIVSWQSIPKPVLKKPTDVIGKVVTTTICGSDLHILKGDVPETTALAATTGHGVVLGHEAIIEIESVGDAVKNFSKGDVCIVSCITSCGKCYYCKRNLQSHCTGHMEGTSGWVFGHEIDGTQAEYVRVPCADYGLYKVPEGVAYEKLLMLSDAIPTSYEIGILNGEVKEGDSVAVVGLGPVGLSALLTAINKKPKQLIAIDMDENRLDLAKQLGATHIINSTNMPNEEVAKKVQEISKDLEPGRESGVDVAIECVGVPPTFELCEDLIASGGTIANVGVHGAKVDLKLQELWIKNCKITTGLVSTYSIPDLLNQVADGSLDPSPIITHHFKFDEFEKAYQVFKDAKNTKAMKIILTP
With B2 the butanediol titer [3] was “maximum butanediol titer”.

B3: ALDH7: monofunctional aldehyde dehydrogenase (protein, listed as Clostridium botulinum)
chain: MERNLSVLSQTNDLKITKRTEGDKSNNKESYLGVFKKVENAITKAIYAQKKLSLYYTKEDRERIIKSIRKATLENKEILAKMIVDETHMGRYEDKILKHELVAKYTPGTEDLITTAWSGDQGLTLVEMSPYGVIGAITPSTNPTETVICNSIGMIAAGDSVVFNGHPGAKKCVAFAVDMINKAVIREGGPENLVTTVENPTMESLNVIMKHPYIKLLCGTGGPGLIKTLLNSGKKAIGAGAGNPPVIVDDSADIDKAAKNIIEGCSFDNNLPCIAEKEVFVFENVANDLIQNMIKNNAVLINENQVSKLLDLVLLERKDETLEYAINKKWVGKDAKLFLDKIGIKASDNVRCIICEVDANHPFVMTELMMPILPIVRVKDVDEAIECAKTAEQRKRHSAYMYSKNIDNLNRFEKEIDTTIFVKNAKSFAGVGFGAEGFTTFTIAGPTGEGITSARNFTRQRRCVLAG
For B3, the “activity toward substrates including acetoacetyl-CoA and 3-hydroxybutyryl-CoA” value [4] was “displays activity”.

B4: AdhE2-ALDH (aldehyde dehydrogenase domain of bifunctional AdhE2, wild type, GI 499193180, SEQ ID NO: 41) (Clostridium acetobutylicum) (protein)
chain: MKVTNQKELKQKLNELREAQKKFATYTQEQVDKIFKQCAIAAAKERINLAKLAVEETGIGLVEDKIIKNHFAAEYIYNKYKNEKTCGIIDHDDSLGITKVAEPIGIVAAIVPTTNPTSTAIFKSLISLKTRNAIFFSPHPRAKKSTIAAAKLILDAAVKAGAPKNIIGWIDEPSIELSQDLMSEADIILATGGPSMVKAAYSSGKPAIGVGAGNTPAIIDESADIDMAVSSIILSKTYDNGVICASEQSILVMNSIYEKVKEEFVKRGSYILNQNEIAKIKETMFKNGAINADIVGKSAYIIAKMAGIEVPQTTKILIGEVQSVEKSELFSHEKLSPVLAMYKVKDFDEALKKAQRLIELGGSGHTSSLYIDSQNNKDKVKEFGLAMKTSRTFINMPSSQGASGDLYNFAIAPSFTLGCGTWGGNSVSQNVEPKHLLNIKSVAERRENMLWFKVPQKIYFKYGCLRFALKELKDMNKKRAFIVTDKDLFKLGYVNKITKVLDEIDIKYSIFTDIKSDPTIDSVKKGAKEMLNFEPDTIISIGGGSPMDAAKVMHLLYEYPEAEIENLAINFMDIRKRICNFPKLGTKAISVAIPTTAGTGSEATPFAVITNDETGMKYPLTSYELTPNMAIIDTELMLNMPRKLTAATGIDALVHAIEAYVSVMATDYTDELALRAIKMIFKYLPRAYKNGTNDIEAREKMAHASNIAGMAFANAFLGVCHSMAHKLGAMHHVPHGIACAVLIEEVIKYNATDCPTKQTAFPQYKSPNAKRKYAEIAEYLNLKGTSDTEKVTALIEAISKLKIDLSIPQNISAAGINKKDFYNTLDKMSELAFDDQCTTANPRYPLISELKDIYIKSF
With B4 the Km [5] was 100 ± 10 µM, the kcat [5] was 1.3 s⁻¹ and the kcat/Km [5] was 13000 M⁻¹ s⁻¹. It also gave a Km [6] of 10 ± 1 µM.
